Data published in IntAct's records for PubMed 9012831.

B1: Tyrosine-protein kinase BTK (Homo sapiens), Q06187 (parent)
chain: MAAVILESIFLKRSQQKKKTSPLNFKKRLFLLTVHKLSYYEYDFERGRRGSKKGSIDVEKITCVETVVPEKNPPPERQIPRRGEESSEMEQISIIERFPYPFQVVYDEGPLYVFSPTEELRKRWIHQLKNVIRYNSDLVQKYHPCFWIDGQYLCCSQTAKNAMGCQILENRNGSLKPGSSHRKTKKPLPPTPEEDQILKKPLPPEPAAAPVSTSELKKVVALYDYMPMNANDLQLRKGDEYFILEESNLPWWRARDKNGQEGYIPSNYVTEAEDSIEMYEWYSKHMTRSQAEQLLKQEGKEGGFIVRDSSKAGKYTVSVFAKSTGDPQGVIRHYVVCSTPQSQYYLAEKHLFSTIPELINYHQHNSAGLISRLKYPVSQQNKNAPSTAGLGYGSWEIDPKDLTFLKELGTGQFGVVKYGKWRGQYDVAIKMIKEGSMSEDEFIEEAKVMMNLSHEKLVQLYGVCTKQRPIFIITEYMANGCLLNYLREMRHRFQTQQLLEMCKDVCEAMEYLESKQFLHRDLAARNCLVNDQGVVKVSDFGLSRYVLDDEYTSSVGSKFPVRWSPPEVLMYSKFSSKSDIWAFGVLMWEIYSLGKMPYERFTNSETAEHIAQGLRLYRPHLASEKVYTIMYSCWHEKADERPTFKILLSNILDVMDEES

Variants of: B1
Settings: with gtf2i_human GTF2I

| effect of a mutation on the interaction | Variant |
| --- | --- |
| decreasing interaction | R307K |
| decreasing interaction | Y223F |
| decreasing interaction | Y551F |
